Assay results from paper PMC4682080.

Key:
GAPDH = GAPDH (UniProt P04406); conditions: cited from earlier work
[1] = target: Glyceraldehyde-3-phosphate dehydrogenase (rabbit muscle GAPDH) (rabbit) (UniProt P46406)
Sequence of UniProt P46406 (P46406 whole entry): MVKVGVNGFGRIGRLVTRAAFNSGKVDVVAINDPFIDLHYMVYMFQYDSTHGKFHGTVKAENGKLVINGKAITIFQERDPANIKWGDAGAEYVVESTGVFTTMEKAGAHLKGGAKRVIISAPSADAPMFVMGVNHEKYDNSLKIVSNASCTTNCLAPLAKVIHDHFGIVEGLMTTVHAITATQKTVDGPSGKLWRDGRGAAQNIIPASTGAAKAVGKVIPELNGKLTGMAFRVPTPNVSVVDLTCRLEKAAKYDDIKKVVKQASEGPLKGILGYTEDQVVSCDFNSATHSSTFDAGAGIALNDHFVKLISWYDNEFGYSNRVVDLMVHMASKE

Sequence of UniProt P04406 (P04406 2-335): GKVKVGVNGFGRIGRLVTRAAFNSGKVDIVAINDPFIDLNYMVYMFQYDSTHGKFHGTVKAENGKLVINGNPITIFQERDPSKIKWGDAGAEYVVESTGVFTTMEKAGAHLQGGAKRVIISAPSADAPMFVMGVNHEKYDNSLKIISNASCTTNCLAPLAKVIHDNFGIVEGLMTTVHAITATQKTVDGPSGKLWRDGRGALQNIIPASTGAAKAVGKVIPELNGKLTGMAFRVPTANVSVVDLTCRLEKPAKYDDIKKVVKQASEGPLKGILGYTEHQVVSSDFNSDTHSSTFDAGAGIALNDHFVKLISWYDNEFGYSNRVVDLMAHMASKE
Sequence of Lactoferrin (P02788 20-710): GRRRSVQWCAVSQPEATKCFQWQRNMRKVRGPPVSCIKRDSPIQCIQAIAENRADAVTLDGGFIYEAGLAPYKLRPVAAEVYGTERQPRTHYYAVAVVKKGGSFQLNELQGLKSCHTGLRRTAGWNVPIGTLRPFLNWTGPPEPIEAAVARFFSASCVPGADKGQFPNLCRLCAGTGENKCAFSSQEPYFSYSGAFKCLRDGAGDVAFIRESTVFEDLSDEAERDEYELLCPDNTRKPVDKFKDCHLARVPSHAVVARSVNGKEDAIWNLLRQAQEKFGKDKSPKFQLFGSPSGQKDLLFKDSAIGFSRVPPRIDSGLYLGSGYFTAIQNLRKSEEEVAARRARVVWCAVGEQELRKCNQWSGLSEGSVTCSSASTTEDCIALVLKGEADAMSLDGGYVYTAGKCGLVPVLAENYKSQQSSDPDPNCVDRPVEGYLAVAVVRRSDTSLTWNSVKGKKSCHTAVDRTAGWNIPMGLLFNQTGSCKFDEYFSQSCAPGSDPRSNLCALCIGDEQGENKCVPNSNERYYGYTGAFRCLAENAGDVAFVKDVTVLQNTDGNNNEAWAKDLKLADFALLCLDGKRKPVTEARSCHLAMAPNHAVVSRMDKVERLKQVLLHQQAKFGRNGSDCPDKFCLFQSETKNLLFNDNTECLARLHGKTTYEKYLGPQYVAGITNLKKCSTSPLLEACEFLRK

Row | Fold change in Lactoferrin MFI of cells internalizing both GAPDH and Lf vs. only lactoferrin +ve cells; CHO [1] [fold] | Fold change in Lactoferrin MFI of cells internalizing both GAPDH and Lf vs. only lactoferrin +ve cells; CHO-TRVb [1] [fold] | Fold change in Lactoferrin MFI of cells internalizing both GAPDH and Lf vs. only lactoferrin +ve cells; Human Lymphocytes [1] [fold] | Fold change in Lactoferrin MFI of cells internalizing both GAPDH and Lf vs. only lactoferrin +ve cells; J774 [1] [fold] | Fold change in Lactoferrin MFI of cells internalizing both GAPDH and Lf vs. only lactoferrin +ve cells; K562 [1] [fold] | Fold change in Lactoferrin MFI of cells internalizing both GAPDH and Lf vs. only lactoferrin +ve cells; Mouse Bone Marrow cells [1] [fold] | Fold change in Lactoferrin MFI of cells internalizing both GAPDH and Lf vs. only lactoferrin +ve cells; Mouse Enterocytes [1] [fold] | Fold change in Lactoferrin MFI of cells internalizing both GAPDH and Lf vs. only lactoferrin +ve cells; Mouse Hepatocytes [1] [fold] | Fold change in Lactoferrin MFI of cells internalizing both GAPDH and Lf vs. only lactoferrin +ve cells; Mouse Peritoneal Macrophages (Ex vivo) [1] [fold] | Fold change in Lactoferrin MFI of cells internalizing both GAPDH and Lf vs. only lactoferrin +ve cells; Mouse Spleen Macrophages [1] [fold] | Fold change in Lactoferrin MFI of cells internalizing both GAPDH and Lf vs. only lactoferrin +ve cells; Mouse peritoneum cells (In-Vivo) [1] [fold] | Fold change in Lactoferrin MFI of cells internalizing both GAPDH and Lf vs. only lactoferrin +ve cells; Neuro-2A (N2A) [1] [fold] | Fold change in Lactoferrin MFI of cells internalizing both GAPDH and Lf vs. only lactoferrin +ve cells; PMA activated THP1 [1] [fold] | Substance | Kd (GAPDH) [nM]
1 | – | – | – | – | – | – | – | – | – | – | – | – | – | Lactoferrin (from UniProt P02788) | 43.8
2 | 4.95 | 2.83 | 1.27 | 2.62 | 1.6 | 3.7 | 5.52 | 4.28 | 1.17 | 2.1 | 6.1 | 4.02 | 2.07 | human lactoferrin (natural protein) | –
